Experimental findings from patent US20200247901A1 are described below.

The target of this assay is mesothelin on RH29 mesothelioma cells (V and M variant ratio 50:50) (human) (UniProt Q13421). The assay can be described thus: cell-based or functional assay.
Chain of mesothelin on RH29 mesothelioma cells (V and M variant ratio 50:50) (human) (Q13421 other isoform, or with tags, fused parts or gaps mutant limits assumed): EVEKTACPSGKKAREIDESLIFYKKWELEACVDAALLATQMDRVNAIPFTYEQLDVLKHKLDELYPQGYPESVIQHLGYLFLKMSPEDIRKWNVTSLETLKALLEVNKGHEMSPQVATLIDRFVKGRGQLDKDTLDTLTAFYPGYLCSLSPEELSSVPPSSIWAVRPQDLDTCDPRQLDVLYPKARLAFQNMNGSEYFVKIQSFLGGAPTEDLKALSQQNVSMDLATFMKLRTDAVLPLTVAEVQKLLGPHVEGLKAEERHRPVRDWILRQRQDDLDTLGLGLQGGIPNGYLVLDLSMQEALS

B1: 15B6 anti-mesothelin antibody (IgG2b) (antibody, V domains shown)
VH: EVQLQQSGPVLVKPGASVKISCKASGYSFTGYYMHWVRQSLVKRLEWIGRINPYTGVPSYKHNFKDKASLTVDKSSSTAYMELHSLTSEDSAVYYCARELGGYWGQGTTLTVSS
VL: QAVVTQESALTTSPGETVTLTCRSSTGAVTTGNYPNWVQEKPDHLFTGLIAGTNNRAPGVPARFSGSLIGDKAALTITGAQTEDEAIYFCALWFSSHWVFGGGTKLTVL
On to B1, for which the decrease in mesothelin shedding from RH29 cells (ELISA of shed mesothelin, OD value) came to 50%.
